In patent publication US20060134801A1, “Methods and compositions involving MDA-7” (Board of Regents, The University of Texas System, priority 2003, published 2006):

What was measured:
A375.S2 = assay: TUNEL apoptosis assay; assay type: cell-based, human; conditions: 40 ng/ml, 3 days
Method: (§1) The mechanism of the anti-tumor activity of rhMDA-7 was also evaluated. Melanoma cells were treated with rhMDA-7 protein and assessed for apoptosis using the TUNEL assay. […] These studies were performed with purified rhMDA-7 protein. The melanoma cells have also been treated with supernatant from 293-mda7 cells or control 293 cells. Only the 293-mda7 supernatant causes cell killing.

SK-Mel-1 = assay: TUNEL apoptosis assay; assay type: cell-based, human; conditions: 40 ng/ml, 3 days
Method: as §1

WM35 = assay: TUNEL apoptosis assay; assay type: cell-based, human; conditions: 40 ng/ml, 3 days
Method: as §1

MeWo = assay: TUNEL apoptosis assay; assay type: cell-based, human; conditions: 40 ng/ml, 3 days
Method: as §1

WM793 = assay: TUNEL apoptosis assay; assay type: cell-based, human; conditions: 40 ng/ml, 3 days
Method: as §1

A375 = assay: TUNEL apoptosis assay; assay type: cell-based, human; conditions: 40 ng/ml, 3 days
Method: as §1

HUVECs = assay: Clonogenic survival of endothelial cells after irradiation; assay type: cell-based, human; conditions: MDA-7 protein 10 ng/ml; angiostatin, endostatin 100 ng/ml; 12 h before irradiation
Method: Twelve hours after seeding HUVECs in 4-well plates (Nunc, Roskilde, Denmark), medium was replaced with serum/growth factor-free medium. After serum/growth factor starvation for 12 hours, cells were treated with complete medium containing either MDA-7 protein (10 ng/ml) (removed from cultures of 293 cells), angiostatin (100 ng/ml), or endostatin (100 ng/ml). Twelve hours later, cells were irradiated with ^137CS unit (3.4 Gy/min) at room temperature, trypsinized and counted. Known numbers of cells were replated in 60 mm culture dishes and incubated to allow macroscopic colony development. Colonies were counted after 14 days, and the percent plating efficiency and surviving fractions following given treatments were calculated based on the survival of non-irradiated cells.

[1] = system: MiaPaCa2 pancreatic cancer cells; assay: MDA-7 protein on pancreatic cancer cells: STAT3 activation, killing; assay type: cell-based, human
Method: MiaPaCa2 pancreatic cancer cells were treated with purified recombinant human MDA-7 protein, as described in Example 11. By immunofluorescence, substantial activation (phosphorylation) of STAT3 and concomitant movement of p-STAT3 to the nucleus were observed. The STAT3 activation was blocked in the presence of anti-MDA-7 antibodies.

PAC1 SMC = assay: Cell death after recombinant MDA-7; assay type: cell-based, rat
Method: Cell viability was determined using the Trypan-blue exclusion assay. Briefly, total cells (suspension+trypsinized) were mixed 1:1 with Trypan blue solution (Gibco-BRL) and then observed under a hemocytometer via light microscopy. The percent of blue cells (dead cells) were counted (an average count of 3-5 fields were made).
Cells are plated in chamber slides and treated with MDA-7 protein for 60 minutes and then washed thoroughly with PBS (3×). The cells are then fixed with methanol:acetic acid (95:5 vol:vol) and stained with anti-pStat3 monoclonal antibody (1:1000 dilution; Cell Signalling) for 1 h at 4° C. The cells are then washed 3× with PBS and treated with secondary antibody (1:1000 dilution; Texas Red-conjugated-Rabbit anti mouse IgG; Sigma) for 1 h at 4° C. The cells are then washed and examined under fluorescence microscopy.

HUVEC = assay: Endothelial cell differentiation (tube formation) assay on Matrigel; assay type: cell-based, human
Method: Endothelial cell differentiation (tube formation) assays were done using the in vitro angiogenesis assay kit (Chemicon, Temecula, Calif.). Briefly, HUVEC and HMVEC were grown to 80% confluency, collected, resuspended in growth medium, and plated at a concentration of 2−10^4 cells/well in a 96-well plate coated with Matrigel (Chemicon, Temecula, Calif.). Cells were treated with sMDA-7 protein (1, 5, 10, and 50 ng/ml), or a preparation immunodepleted of sMDA protein for 24 h at 37° C. Cells treated with PBS served as negative controls in these experiments. The ability of sMDA-7 to inhibit tube formation was determined and quantitated by counting the number of tubes under bright-field microscopy.
For experiments involving comparative studies, cells were treated with equimolar concentrations of sMDA-7 (5, 10, and 300 ng/ml), recombinant human endostatin (5.2, 10.4, and 315 ng/ml; Calbiochem, La Jolla, Calif.), recombinant IFN-γ (4.5, 9, and 268 ng/ml; R&D systems, Minneapolis, Minn.) or recombinant IP-10 (2.4, 4.5, and 134 ng/ml; R&D systems, Minneapolis, Minn.) and analyzed for tube formation assay as described above. All samples were tested in duplicate. Experiments were repeated at least 5-6 times.
For receptor blocking studies, HUVEC grown in six-well plates were pretreated with IL-22R1 blocking antibody (1 ng/ml and 5 ng/ml). Following overnight incubation, cells were harvested, washed, and plated in Matrigel coated 96-well plates. Fresh IL-22R1 blocking antibody and sMDA-7 was added to the wells in a 1:1 ratio (1 ng/ml of IL-22R1 antibody:1 ng/ml of sMDA-7) or 1:5 ratio (1 ng/ml of IL-22R1 antibody:5 ng/ml of sMDA-7) and incubated at 37° C. After overnight incubation, the plates were examined for tube formation. All other experimental procedures were the same as described above. […] The relative amount of IL-22R1 used for experiments involving endostatin was 315 ng/ml (1:1 ratio) and 134 ng/ml for experiments involving IP-10 (1:1 ratio). All other experimental procedures were the same as described previously. For blocking studies using anti-IP-10 or anti-IFN-γ neutralizing antibodies (R & D Systems), experiments were conducted as described above for receptor studies except that HUVEC were treated with the appropriate neutralizing antibody (1 μg and 5 μg/ml) prior to treatment with sMDA-7 (300 ng/ml).

B1: sMDA-7: soluble secreted human MDA-7 (IL-24) protein purified from stably transfected 293-mda-7 cells (protein)
chain: AQGQEFHFGPCQVKGVVPQKLWEAFWAVKDTMQAQDNITSARLLQQEVLQNVSDAESCYLVHTLLEFYLKTVFKNYHNRTVEVRTLKSFSTLANNFVLIVSQLQPSQENEMFSIRDSAHRRFLLFRRAFKQLDVEAALTKALGEVDILLTWMQKFYKL
% TUNEL Positive (A375.S2): 12.3% | % TUNEL Positive (SK-Mel-1): 5.0% | % TUNEL Positive (WM35): 17.88% | % TUNEL Positive (MeWo): 12.11% | % TUNEL Positive (WM793): 9.88% | % TUNEL Positive (A375): 18.78% | radiosensitization of HUVECs (HUVECs): sensitized | killing of MiaPaCa2 cells [1]: dose-dependent killing | time to evident STAT3 activation [1]: ≤ 30 min | cell death (PAC1 SMC): No statistically significant increase in cell death | inhibitory activity on tube formation in presence of anti-IP-10 or anti-IFN-γ neutralizing antibodies (HUVEC): not lost | tube formation (HUVEC; 5 ng/ml alone): completely inhibited | formation of capillary tube-like structures (HUVEC; HUVEC and HMVEC, 1, 5, 10, 50 ng/ml): significantly inhibited | concentration required to significantly inhibit HUVEC tube formation (HUVEC; equimolar comparison): 10 ng/mL
